Assay [1] deals with T1, orthogonal hCD122 receptor (hoRb), hCD122 with H133D and Y134F (human, UniProt P14784 27-550).
T1 sequence: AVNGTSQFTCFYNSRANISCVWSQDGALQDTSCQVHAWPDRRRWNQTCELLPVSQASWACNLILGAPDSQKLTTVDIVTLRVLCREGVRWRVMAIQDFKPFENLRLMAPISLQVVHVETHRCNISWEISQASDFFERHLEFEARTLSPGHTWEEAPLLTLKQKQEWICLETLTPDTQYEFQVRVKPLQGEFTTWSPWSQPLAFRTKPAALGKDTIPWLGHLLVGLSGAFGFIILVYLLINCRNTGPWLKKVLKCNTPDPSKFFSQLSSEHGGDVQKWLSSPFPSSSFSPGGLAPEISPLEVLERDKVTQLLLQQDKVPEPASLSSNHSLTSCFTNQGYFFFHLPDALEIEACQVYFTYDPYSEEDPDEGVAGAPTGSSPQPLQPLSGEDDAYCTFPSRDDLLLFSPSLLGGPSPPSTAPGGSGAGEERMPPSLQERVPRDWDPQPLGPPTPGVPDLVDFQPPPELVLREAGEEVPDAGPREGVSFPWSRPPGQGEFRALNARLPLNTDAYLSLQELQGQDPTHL
The experiment in a line: cell-based or functional assay.

For assay [2], the target named is T1, orthogonal hCD122 receptor (hoRb), …. As to the kind of experiment: cell-based or functional assay. This is another data set of the same source.
Throughout, for Relative Proliferation Fold Change 3F8 1:10: reference of the scale not given here.
Throughout, for Relative Proliferation Fold Change 3F8 1:2: reference of the scale not given here.
Throughout, for Relative Proliferation Fold Change 3F8 1:50: reference of the scale not given here.
Throughout, for Relative Proliferation Fold Change NKL 1:10: reference of the scale not given here.
Throughout, for Relative Proliferation Fold Change NKL 1:2: reference of the scale not given here.
Throughout, for Relative Proliferation Fold Change NKL 1:50: reference of the scale not given here.

B1: ΔH16, S_VLKA (ligand)
chain: APTSSSTKKTQLQLSLLVLLKAILNGINNYKNPKLTRMLTFKFYMPKKATELKHLQCLEEELKPLEEVLNLAQSKNFHLRPRDLISNINVIVLELKGSETTFMCEYADETATIVEFLNRWITFCQSIISTLT
As to B1, in assay [1], the “3F8 Ortho Proliferation Signal 1:2” value stood at 2360 cts/min, the “3F8 Ortho Proliferation Signal 1:10” value is 4420 cts/min, the “3F8 Ortho Proliferation Signal 1:50” value amounted to 1670 cts/min and the “Relative Proliferation Fold Change 3F8 1:2” value is 3.49 fold. Besides, in assay [1], the “Relative Proliferation Fold Change 3F8 1:10” value was found to be 1.68 fold and the “Relative Proliferation Fold Change 3F8 1:50” value was 1.33 fold. In assay [2], the “NKL Ortho Proliferation Signal 1:2” value came to 20900, the “NKL Ortho Proliferation Signal 1:10” value was determined as 14200, the “NKL Ortho Proliferation Signal 1:50” value is 9760 and the “Relative Proliferation Fold Change NKL 1:2” value came out at 1.32 fold. In assay [2], the “Relative Proliferation Fold Change NKL 1:10” value was 0.84 fold and the “Relative Proliferation Fold Change NKL 1:50” value is 0.62 fold.

B2: Q126I, SQVLKA (ligand)
chain: APTSSSTKKTQLQLSQLLVLLKAILNGINNYKNPKLTRMLTFKFYMPKKATELKHLQCLEEELKPLEEVLNLAQSKNFHLRPRDLISNINVIVLELKGSETTFMCEYADETATIVEFLNRWITFCISIISTLT
With B2, in assay [1], the “3F8 Ortho Proliferation Signal 1:2” value worked out at 27400 cts/min, the “3F8 Ortho Proliferation Signal 1:10” value is 27000 cts/min, the “3F8 Ortho Proliferation Signal 1:50” value was determined as 9510 cts/min and the “Relative Proliferation Fold Change 3F8 1:2” value is 30 fold. Moreover, in assay [1], the “Relative Proliferation Fold Change 3F8 1:10” value turned out to be 11.3 fold and the “Relative Proliferation Fold Change 3F8 1:50” value worked out at 8.69 fold. In addition, in assay [2], the “NKL Ortho Proliferation Signal 1:2” value came out at 40000, the “NKL Ortho Proliferation Signal 1:10” value worked out at 35600, the “NKL Ortho Proliferation Signal 1:50” value is 16700 and the “Relative Proliferation Fold Change NKL 1:2” value stood at 3.78 fold. Moreover, in assay [2], the “Relative Proliferation Fold Change NKL 1:10” value turned out to be 2.5 fold and the “Relative Proliferation Fold Change NKL 1:50” value worked out at 1.25 fold.

B3: Q126R, SQVLKA (ligand)
chain: APTSSSTKKTQLQLSQLLVLLKAILNGINNYKNPKLTRMLTFKFYMPKKATELKHLQCLEEELKPLEEVLNLAQSKNFHLRPRDLISNINVIVLELKGSETTFMCEYADETATIVEFLNRWITFCRSIISTLT
Take B3: in assay [1], the “3F8 Ortho Proliferation Signal 1:2” value came out at 22400 cts/min, the “3F8 Ortho Proliferation Signal 1:10” value was determined as 18100 cts/min, the “3F8 Ortho Proliferation Signal 1:50” value amounted to 3710 cts/min and the “Relative Proliferation Fold Change 3F8 1:2” value came out at 0.49 fold. Besides, in assay [1], the “Relative Proliferation Fold Change 3F8 1:10” value was found to be 1.44 fold and the “Relative Proliferation Fold Change 3F8 1:50” value was 1.37 fold. In assay [2], the “NKL Ortho Proliferation Signal 1:2” value came out at 13900, the “NKL Ortho Proliferation Signal 1:10” value came to 9670, the “NKL Ortho Proliferation Signal 1:50” value worked out at 6650 and the “Relative Proliferation Fold Change NKL 1:2” value is 1.18 fold. Further, in assay [2], the “Relative Proliferation Fold Change NKL 1:10” value was 0.75 fold and the “Relative Proliferation Fold Change NKL 1:50” value came out at 0.57 fold.

B4: L18G, SQVLKA (ligand)
chain: APTSSSTKKTQLQLSQLGVLLKAILNGINNYKNPKLTRMLTFKFYMPKKATELKHLQCLEEELKPLEEVLNLAQSKNFHLRPRDLISNINVIVLELKGSETTFMCEYADETATIVEFLNRWITFCQSIISTLT
In the case of B4, in assay [1], the “3F8 Ortho Proliferation Signal 1:2” value came to 37700 cts/min, the “3F8 Ortho Proliferation Signal 1:10” value was determined as 25900 cts/min, the “3F8 Ortho Proliferation Signal 1:50” value worked out at 9750 cts/min and the “Relative Proliferation Fold Change 3F8 1:2” value was determined as 52.9 fold. For the same molecule, in assay [1], the “Relative Proliferation Fold Change 3F8 1:10” value is 17 fold and the “Relative Proliferation Fold Change 3F8 1:50” value amounted to 3.79 fold. In assay [2], the “NKL Ortho Proliferation Signal 1:2” value was 15400, the “NKL Ortho Proliferation Signal 1:10” value came out at 13400, the “NKL Ortho Proliferation Signal 1:50” value was 8640 and the “Relative Proliferation Fold Change NKL 1:2” value is 1.05 fold. In assay [2], the “Relative Proliferation Fold Change NKL 1:10” value was 0.83 fold and the “Relative Proliferation Fold Change NKL 1:50” value came to 0.57 fold.

B5: L18M, SQVLKA (ligand)
chain: APTSSSTKKTQLQLSQLMVLLKAILNGINNYKNPKLTRMLTFKFYMPKKATELKHLQCLEEELKPLEEVLNLAQSKNFHLRPRDLISNINVIVLELKGSETTFMCEYADETATIVEFLNRWITFCQSIISTLT
Turning to B5, in assay [1], the “3F8 Ortho Proliferation Signal 1:2” value is 42000 cts/min, the “3F8 Ortho Proliferation Signal 1:10” value worked out at 48500 cts/min, the “3F8 Ortho Proliferation Signal 1:50” value worked out at 37200 cts/min and the “Relative Proliferation Fold Change 3F8 1:2” value was 55 fold. Moreover, in assay [1], the “Relative Proliferation Fold Change 3F8 1:10” value is 21.9 fold and the “Relative Proliferation Fold Change 3F8 1:50” value was 16.6 fold. For the same molecule, in assay [2], the “NKL Ortho Proliferation Signal 1:2” value worked out at 42700, the “NKL Ortho Proliferation Signal 1:10” value came out at 43900, the “NKL Ortho Proliferation Signal 1:50” value turned out to be 22100 and the “Relative Proliferation Fold Change NKL 1:2” value is 3.7 fold. Besides, in assay [2], the “Relative Proliferation Fold Change NKL 1:10” value came out at 2.72 fold and the “Relative Proliferation Fold Change NKL 1:50” value was determined as 1.55 fold.

B6: Q126T, SQVLKA (ligand)
chain: APTSSSTKKTQLQLSQLLVLLKAILNGINNYKNPKLTRMLTFKFYMPKKATELKHLQCLEEELKPLEEVLNLAQSKNFHLRPRDLISNINVIVLELKGSETTFMCEYADETATIVEFLNRWITFCTSIISTLT
For the molecule B6, in assay [1], the “3F8 Ortho Proliferation Signal 1:2” value amounted to 3380 cts/min, the “3F8 Ortho Proliferation Signal 1:10” value is 1880 cts/min, the “3F8 Ortho Proliferation Signal 1:50” value stood at 1320 cts/min and the “Relative Proliferation Fold Change 3F8 1:2” value came out at 0.28 fold. Moreover, in assay [1], the “Relative Proliferation Fold Change 3F8 1:10” value came out at 0.54 fold and the “Relative Proliferation Fold Change 3F8 1:50” value worked out at 1.92 fold. In assay [2], the “NKL Ortho Proliferation Signal 1:2” value came to 5980, the “NKL Ortho Proliferation Signal 1:10” value worked out at 6750, the “NKL Ortho Proliferation Signal 1:50” value stood at 5180 and the “Relative Proliferation Fold Change NKL 1:2” value was determined as 0.44 fold. Besides, in assay [2], the “Relative Proliferation Fold Change NKL 1:10” value is 0.47 fold and the “Relative Proliferation Fold Change NKL 1:50” value was 0.41 fold.

B7: Q126S, SQVLKA (ligand)
chain: APTSSSTKKTQLQLSQLLVLLKAILNGINNYKNPKLTRMLTFKFYMPKKATELKHLQCLEEELKPLEEVLNLAQSKNFHLRPRDLISNINVIVLELKGSETTFMCEYADETATIVEFLNRWITFCSSIISTLT
In the case of B7, in assay [1], the “3F8 Ortho Proliferation Signal 1:2” value is 9540 cts/min, the “3F8 Ortho Proliferation Signal 1:10” value came to 2870 cts/min, the “3F8 Ortho Proliferation Signal 1:50” value worked out at 826 cts/min and the “Relative Proliferation Fold Change 3F8 1:2” value was determined as 19.3 fold. In assay [1], the “Relative Proliferation Fold Change 3F8 1:10” value amounted to 3.69 fold and the “Relative Proliferation Fold Change 3F8 1:50” value was 1.6 fold. In assay [2], the “NKL Ortho Proliferation Signal 1:2” value amounted to 9460, the “NKL Ortho Proliferation Signal 1:10” value stood at 7880, the “NKL Ortho Proliferation Signal 1:50” value stood at 6310 and the “Relative Proliferation Fold Change NKL 1:2” value turned out to be 0.71 fold. Further, in assay [2], the “Relative Proliferation Fold Change NKL 1:10” value stood at 0.57 fold and the “Relative Proliferation Fold Change NKL 1:50” value amounted to 0.5 fold.

B8: SNVLKA (ligand)
chain: APTSSSTKKTQLQLSNLLVLLKAILNGINNYKNPKLTRMLTFKFYMPKKATELKHLQCLEEELKPLEEVLNLAQSKNFHLRPRDLISNINVIVLELKGSETTFMCEYADETATIVEFLNRWITFCQSIISTLT
As to B8, in assay [1], the “3F8 Ortho Proliferation Signal 1:2” value was 31400 cts/min, the “3F8 Ortho Proliferation Signal 1:10” value was found to be 32700 cts/min, the “3F8 Ortho Proliferation Signal 1:50” value was determined as 19000 cts/min and the “Relative Proliferation Fold Change 3F8 1:2” value is 9.2 fold. In assay [1], the “Relative Proliferation Fold Change 3F8 1:10” value was 11.8 fold and the “Relative Proliferation Fold Change 3F8 1:50” value turned out to be 4.79 fold. Moreover, in assay [2], the “NKL Ortho Proliferation Signal 1:2” value was determined as 46800, the “NKL Ortho Proliferation Signal 1:10” value worked out at 39700, the “NKL Ortho Proliferation Signal 1:50” value was 18300 and the “Relative Proliferation Fold Change NKL 1:2” value was found to be 2.94 fold. Besides, in assay [2], the “Relative Proliferation Fold Change NKL 1:10” value amounted to 2.19 fold and the “Relative Proliferation Fold Change NKL 1:50” value was 1.09 fold.

B9: TQVLKA (ligand)
chain: APTSSSTKKTQLQLTQLLVLLKAILNGINNYKNPKLTRMLTFKFYMPKKATELKHLQCLEEELKPLEEVLNLAQSKNFHLRPRDLISNINVIVLELKGSETTFMCEYADETATIVEFLNRWITFCQSIISTLT
For the molecule B9, in assay [1], the “3F8 Ortho Proliferation Signal 1:2” value came out at 29100 cts/min, the “3F8 Ortho Proliferation Signal 1:10” value was determined as 35900 cts/min, the “3F8 Ortho Proliferation Signal 1:50” value is 17000 cts/min and the “Relative Proliferation Fold Change 3F8 1:2” value was determined as 2.6 fold. Besides, in assay [1], the “Relative Proliferation Fold Change 3F8 1:10” value was 16 fold and the “Relative Proliferation Fold Change 3F8 1:50” value amounted to 8.69 fold. Further, in assay [2], the “NKL Ortho Proliferation Signal 1:2” value stood at 50400, the “NKL Ortho Proliferation Signal 1:10” value was determined as 57900, the “NKL Ortho Proliferation Signal 1:50” value turned out to be 27800 and the “Relative Proliferation Fold Change NKL 1:2” value stood at 3.46 fold. In assay [2], the “Relative Proliferation Fold Change NKL 1:10” value came to 3.31 fold and the “Relative Proliferation Fold Change NKL 1:50” value came out at 1.75 fold.

B10: KQVLKA (ligand)
chain: APTSSSTKKTQLQLKQLLVLLKAILNGINNYKNPKLTRMLTFKFYMPKKATELKHLQCLEEELKPLEEVLNLAQSKNFHLRPRDLISNINVIVLELKGSETTFMCEYADETATIVEFLNRWITFCQSIISTLT
On to B10, for which, in assay [1], the “3F8 Ortho Proliferation Signal 1:2” value was 35200 cts/min, the “3F8 Ortho Proliferation Signal 1:10” value amounted to 36800 cts/min, the “3F8 Ortho Proliferation Signal 1:50” value turned out to be 24000 cts/min and the “Relative Proliferation Fold Change 3F8 1:2” value came to 4.86 fold. For the same molecule, in assay [1], the “Relative Proliferation Fold Change 3F8 1:10” value is 3.88 fold and the “Relative Proliferation Fold Change 3F8 1:50” value was determined as 23 fold. Besides, in assay [2], the “NKL Ortho Proliferation Signal 1:2” value turned out to be 71200, the “NKL Ortho Proliferation Signal 1:10” value came out at 67600, the “NKL Ortho Proliferation Signal 1:50” value amounted to 38900 and the “Relative Proliferation Fold Change NKL 1:2” value was 5.12 fold. Further, in assay [2], the “Relative Proliferation Fold Change NKL 1:10” value stood at 4.36 fold and the “Relative Proliferation Fold Change NKL 1:50” value is 2.63 fold.

The values above are taken from US20210196796A1 (SYNTHEKINE, published 2021).
